Series [1] concerns HeLa Kyoto. Kind of series: solubility in G1/S (NP-40 vs SDS abundance) (log2 ratio); higher = more soluble. The conditions noted are these: cell cycle stage: G1/S.
Series [2] has as its system HeLa Kyoto. Nature of the series: melting temperature (median over replicates), in situ; higher = more thermally stable.
Series [3] has as its system HeLa Kyoto. Nature of the series: solubility change mitosis vs G1/S (difference of NP-40 vs SDS log2 ratios) (log2 ratio difference); higher = more soluble in mitosis.
Series [4] has as its system HeLa Kyoto. Nature of the series: thermal stability score vs G1/S (z-score of summed log2 fold changes over temperatures); higher = more thermally stable than in G1/S.
Where [5] appears, read: cell cycle stage: early G1 (4.5 h after nocodazole release).

We go through eight sequences from the supplement of paper PMC5998384.
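Wherever melting temperature (median over replicates), in situ is given: HeLa Kyoto cells synchronized by double thymidine or nocodazole block, proteins quantified by TMT10plex mass spectrometry, three independent biological replicates.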
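Wherever solubility change mitosis vs G1/S (difference of NP-40 vs SDS log2 ratios) is given: synchronized HeLa Kyoto cells (double thymidine block for G1/S, nocodazole release for mitosis), protein amounts in NP-40 versus SDS lysates quantified by mass spectrometry, three biological replicates.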
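Wherever solubility in G1/S (NP-40 vs SDS abundance) is given: HeLa Kyoto cells arrested at G1/S by double thymidine block, proteins quantified by TMT10plex mass spectrometry in mild NP-40 versus SDS extracts, three biological replicates.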
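Wherever thermal stability score vs G1/S (z-score of summed log2 fold changes over temperatures) is given: synchronized HeLa Kyoto cells, proteins quantified by TMT10plex mass spectrometry, three biological replicates, mitosis taken 0.5 h after nocodazole release, G1/S directly after double thymidine block.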

Consider “MSFDPNLLHNNGHNGYPNGTSAALRETGVIEKLLTSYGFIQCSERQARLFFHCSQYNGNLQDLKVGDDVEFEVSSDRRTGKPIAVKLVKIKQEILPEERMNGQVVCAVPHNLESKSPAAPGQSPTGSVCYERNGEVFYLTYTPEDVEGNVQLETGDKINFVIDNNKHTGAVSARNIMLLKKKQARCQGVVCAMKEAFGFIERGDVVKEIFFHYSEFKGDLETLQPGDDVEFTIKDRNGKEVATDVRLLPQGTVIFEDISIEHFEGTVTKVIPKVPSKNQNDPLPGRIKVDFVIPKELPFGDKDTKSKVTLLEGDHVRFNISTDRRDKLERATNIEVLSNTFQFTNEAREMGVIAAMRDGFGFIKCVDRDVRMFFHFSEILDGNQLHIADEVEFTVVPDMLSAQRNHAIRIKKLPKGTVSFHSHSDHRFLGTVEKEATFSNPKTTSPNKGKEKEAEDGIIAYDDCGVKLTIAFQAKDVEGSTSPQIGDKVEFSISDKQRPGQQVATCVRLLGRNSNSKRLLGYVATLKDNFGFIETANHDKEIFFHYSEFSGDVDSLELGDMVEYSLSKGKGNKVSAEKVNKTHSVNGITEEADPTIYSGKVIRPLRSVDPTQTEYQGMIEIVEEGDMKGEVYPFGIVGMANKGDCLQKGESVKFQLCVLGQNAQTMAYNITPLRRATVECVKDQFGFINYEVGDSKKLFFHVKEVQDGIELQAGDEVEFSVILNQRTGKCSACNVWRVCEGPKAVAAPRPDRLVNRLKNITLDDASAPRLMVLRQPRGPDNSMGFGAERKIRQAGVID [CSDE1]”, for which the “solubility in G1/S (log2)” value in the series with HeLa Kyoto [1] is -0.15. Besides, the figures for the melting temperature in the series on HeLa Kyoto [2] (cell cycle stage: G1/S) and in the series with HeLa Kyoto [2] (cell cycle stage: mitosis) were 47.6 °C and 48.4 °C, respectively. In addition, the “solubility change mitosis (log2)” value in the series with HeLa Kyoto [3] is -0.111. In addition, the thermal stability score with HeLa Kyoto [4] (setting [5]) came to 1.75; in the series on HeLa Kyoto [4] (cell cycle stage: mitosis), 4.08.
On to “MSFLKSFPPPGPAEGLLRQQPDTEAVLNGKGLGTGTLYIAESRLSWLDGSGLGFSLEYPTISLHALSRDRSDCLGEHLYVMVNAKFEEESKEPVADEEEEDSDDDVEPITEFRFVPSDKSALEAMFTAMCECQALHPDPEDEDSDDYDGEEYDVEAHEQGQGDIPTFYTYEEGLSHLTAEGQATLERLEGMLSQSVSSQYNMAGVRTEDSIRDYEDGMEVDTTPTVAGQFEDADVDH [CLNS1A]”, for which the “solubility in G1/S (log2)” value in the series on HeLa Kyoto [1] was -0.106. Also, the values for the melting temperature with HeLa Kyoto [2] (cell cycle stage: G1/S) and in the series on HeLa Kyoto [2] (cell cycle stage: mitosis) were 51.7 °C and 52.6 °C, respectively. The “solubility change mitosis (log2)” value in the series with HeLa Kyoto [3] stood at 0.0376. Also, the results for the thermal stability score in the series on HeLa Kyoto [4] (setting [5]) and in the series on HeLa Kyoto [4] (cell cycle stage: mitosis) were -0.798 and -0.57, respectively.
Take “MSFRKVNIIILVLAVALFLLVLHHNFLSLSSLLRNEVTDSGIVGPQPIDFVPNALRHAVDGRQEEIPVVIAASEDRLGGAIAAINSIQHNTRSNVIFYIVTLNNTADHLRSWLNSDSLKSIRYKIVNFDPKLLEGKVKEDPDQGESMKPLTFARFYLPILVPSAKKAIYMDDDVIVQGDILALYNTALKPGHAAAFSEDCDSASTKVVIRGAGNQYNYIGYLDYKKERIRKLSMKASTCSFNPGVFVANLTEWKRQNITNQLEKWMKLNVEEGLYSRTLAGSITTPPLLIVFYQQHSTIDPMWNVRHLGSSAGKRYSPQFVKAAKLLHWNGHLKPWGRTASYTDVWEKWYIPDPTGKFNLIRRYTEISNIK [GLT8D1]”: in the series on HeLa Kyoto [1], the “solubility in G1/S (log2)” value is 0.144. In addition, the melting temperature in the series on HeLa Kyoto [2] (cell cycle stage: G1/S) and in the series with HeLa Kyoto [2] (cell cycle stage: mitosis) was 53 °C throughout. Moreover, the “solubility change mitosis (log2)” value in the series on HeLa Kyoto [3] turned out to be 0.024. Moreover, the thermal stability score with HeLa Kyoto [4] (setting [5]) was found to be 3.31; with HeLa Kyoto [4] (cell cycle stage: mitosis), 5.82.
In the case of “MSFRKVVRQSKFRHVFGQPVKNDQCYEDIRVSRVTWDSTFCAVNPKFLAVIVEASGGGAFLVLPLSKTGRIDKAYPTVCGHTGPVLDIDWCPHNDEVIASGSEDCTVMVWQIPENGLTSPLTEPVVVLEGHTKRVGIIAWHPTARNVLLSAGCDNVVLIWNVGTAEELYRLDSLHPDLIYNVSWNHNGSLFCSACKDKSVRIIDPRRGTLVAEREKAHEGARPMRAIFLADGKVFTTGFSRMSERQLALWDPENLEEPMALQELDSSNGALLPFYDPDTSVVYVCGKGDSSIRYFEITEEPPYIHFLNTFTSKEPQRGMGSMPKRGLEVSKCEIARFYKLHERKCEPIVMTVPRKSDLFQDDLYPDTAGPEAALEAEEWVSGRDADPILISLREAYVPSKQRDLKISRRNVLSDSRPAMAPGSSHLGAPASTTTAADATPSGSLARAGEAGKLEEVMQELRALRALVKEQGDRICRLEEQLGRMENGDA [CORO1B]”, the “solubility in G1/S (log2)” value in the series on HeLa Kyoto [1] is -0.0585. For the same sequence, the figures for the melting temperature in the series on HeLa Kyoto [2] (cell cycle stage: G1/S) and in the series with HeLa Kyoto [2] (cell cycle stage: mitosis) were 51.1 °C and 50.6 °C, respectively. The “solubility change mitosis (log2)” value in the series on HeLa Kyoto [3] was -0.0904. For the same sequence, the figures for the thermal stability score with HeLa Kyoto [4] (setting [5]) and in the series on HeLa Kyoto [4] (cell cycle stage: mitosis) were -0.395 and -0.683, respectively.
As for “MSFVAYEELIKEGDTAILSLGHGAMVAVRVQRGAQTQTRHGVLRHSVDLIGRPFGSKVTCGRGGWVYVLHPTPELWTLNLPHRTQILYSTDIALITMMLELRPGSVVCESGTGSGSVSHAIIRTIAPTGHLHTVEFHQQRAEKAREEFQEHRVGRWVTVRTQDVCRSGFGVSHVADAVFLDIPSPWEAVGHAWDALKVEGGRFCSFSPCIEQVQRTCQALAARGFSELSTLEVLPQVYNVRTVSLPPPDLGTGTDGPAGSDTSPFRSGTPMKEAVGHTGYLTFATKTPG [TRMT61A]”, the “solubility in G1/S (log2)” value in the series on HeLa Kyoto [1] was -0.0252. Further, the melting temperature was 55.4 °C in the series on HeLa Kyoto [2] (cell cycle stage: G1/S) and 57.5 °C in the series with HeLa Kyoto [2] (cell cycle stage: mitosis). Besides, the “solubility change mitosis (log2)” value with HeLa Kyoto [3] was -0.00636. Also, the thermal stability score was 0.944 in the series with HeLa Kyoto [4] (setting [5]) and -0.546 in the series with HeLa Kyoto [4] (cell cycle stage: mitosis).
Consider “MSGAEEAGGGGPAAGPAGSVPAGVGVGVGAGPGAAAGQAAAAALGEAAGPGLPDEAGLAGARQLQLQEAAGDPDAPPKKRLRAAEAAEAAAAAAAAGSGKLEERLYSVLCCTVCLDLPKASVYQCTNGHLMCAGCFIHLLADARLKEEQATCPNCRCEISKSLCCRNLAVEKAVSELPSECGFCLRQFPRSLLERHQKEECQDRVTQCKYKRIGCPWHGPFHELTVHEAACAHPTKTGSELMEILDGMDQSHRKEMQLYNSIFSLLSFEKIGYTEVQFRPYRTDDFITRLYYETPRFTVLNQTWVLKARVNDSERNPNLSCKRTLSFQLLLKSKVTAPLECSFLLLKGPYDDVRISPVIYHFVFTNESNETDYVPLPIIDSVECNKLLAAKNINLRLFLFQIQK [CYHR1]”, for which, in the series on HeLa Kyoto [1], the “solubility in G1/S (log2)” value was 0.166. Moreover, the melting temperature in the series on HeLa Kyoto [2] (cell cycle stage: G1/S) was 54 °C; with HeLa Kyoto [2] (cell cycle stage: mitosis) it was 55 °C. For the same sequence, the “solubility change mitosis (log2)” value with HeLa Kyoto [3] is -0.0838. The thermal stability score in the series on HeLa Kyoto [4] (setting [5]) is -1.75; in the series with HeLa Kyoto [4] (cell cycle stage: mitosis), -2.18.
Turning to “MSGASSSEQNNNSYETKTPNLRMSEKKCSWASYMTNSPTLIVMIGLPARGKTYVSKKLTRYLNWIGVPTKVFNLGVYRREAVKSYKSYDFFRHDNEEAMKIRKQCALVALEDVKAYLTEENGQIAVFDATNTTRERRDMILNFAEQNSFKVFFVESVCDDPDVIAANILEVKVSSPDYPERNRENVMEDFLKRIECYKVTYRPLDPDNYDKDLSFIKVINVGQRFLVNRVQDYIQSKIVYYLMNIHVQPRTIYLCRHGESEFNLLGKIGGDSGLSVRGKQFAQALRKFLEEQEITDLKVWTSQLKRTIQTAESLGVPYEQWKILNEIDAGVCEEMTYAEIEKRYPEEFALRDQEKYLYRYPGGESYQDLVQRLEPVIMELERQGNVLVISHQAVMRCLLAYFLDKGADELPYLRCPLHTIFKLTPVAYGCKVETIKLNVEAVNTHRDKPTNNFPKNQTPVRMRRNSFTPLSSSNTIRRPRNYSVGSRPLKPLSPLRAQDMQEGAD [PFKFB2]”, the “solubility in G1/S (log2)” value in the series with HeLa Kyoto [1] is 0.16. The melting temperature with HeLa Kyoto [2] (cell cycle stage: G1/S) was determined as 53.9 °C; with HeLa Kyoto [2] (cell cycle stage: mitosis), 53.3 °C. Besides, the “solubility change mitosis (log2)” value in the series on HeLa Kyoto [3] was -0.071. The thermal stability score in the series with HeLa Kyoto [4] (setting [5]) came to 0.139; in the series with HeLa Kyoto [4] (cell cycle stage: mitosis), 0.693.
“MSGEDEQQEQTIAEDLVVTKYKMGGDIANRVLRSLVEASSSGVSVLSLCEKGDAMIMEETGKIFKKEKEMKKGIAFPTSISVNNCVCHFSPLKSDQDYILKEGDLVKIDLGVHVDGFIANVAHTFVVDVAQGTQVTGRKADVIKAAHLCAEAALRLVKPGNQNTQVTEAWNKVAHSFNCTPIEGMLSHQLKQHVIDGEKTIIQNPTDQQKKDHEKAEFEVHEVYAVDVLVSSGEGKAKDAGQRTTIYKRDPSKQYGLKMKTSRAFFSEVERRFDAMPFTLRAFEDEKKARMGVVECAKHELLQPFNVLYEKEGEFVAQFKFTVLLMPNGPMRITSGPFEPDLYKSEMEVQDAELKALLQSSASRKTQKKKKKKASKTAENATSGETLEENEAGD [PA2G4]”: the “solubility in G1/S (log2)” value with HeLa Kyoto [1] was -0.0146. Also, the melting temperature with HeLa Kyoto [2] (cell cycle stage: G1/S) stood at 51.5 °C; in the series on HeLa Kyoto [2] (cell cycle stage: mitosis) it was 52.1 °C. For the same sequence, in the series with HeLa Kyoto [3], the “solubility change mitosis (log2)” value was -0.108. The thermal stability score in the series on HeLa Kyoto [4] (setting [5]) was -0.392; with HeLa Kyoto [4] (cell cycle stage: mitosis) it was 2.
